Data taken from article PMC5014452.

How the values were obtained:
Test in all cases: EMSA
[1] = biological target: recombinant human integrin α6β4 (Homo sapiens, UniProt P23229;P16144 24-1050;28-710)
[2] = biological target: recombinant human integrin α6β1 (Homo sapiens, UniProt P23229;P05556 24-1050;21-728)
[3] = biological target: recombinant murine integrin α6β4 (Mus musculus, UniProt Q61739;A2A863 24-1011;29-712)

Measured: binding result

recombinant murine integrin α6β4, sequence (Q61739 24-1011, chain 1 of 2): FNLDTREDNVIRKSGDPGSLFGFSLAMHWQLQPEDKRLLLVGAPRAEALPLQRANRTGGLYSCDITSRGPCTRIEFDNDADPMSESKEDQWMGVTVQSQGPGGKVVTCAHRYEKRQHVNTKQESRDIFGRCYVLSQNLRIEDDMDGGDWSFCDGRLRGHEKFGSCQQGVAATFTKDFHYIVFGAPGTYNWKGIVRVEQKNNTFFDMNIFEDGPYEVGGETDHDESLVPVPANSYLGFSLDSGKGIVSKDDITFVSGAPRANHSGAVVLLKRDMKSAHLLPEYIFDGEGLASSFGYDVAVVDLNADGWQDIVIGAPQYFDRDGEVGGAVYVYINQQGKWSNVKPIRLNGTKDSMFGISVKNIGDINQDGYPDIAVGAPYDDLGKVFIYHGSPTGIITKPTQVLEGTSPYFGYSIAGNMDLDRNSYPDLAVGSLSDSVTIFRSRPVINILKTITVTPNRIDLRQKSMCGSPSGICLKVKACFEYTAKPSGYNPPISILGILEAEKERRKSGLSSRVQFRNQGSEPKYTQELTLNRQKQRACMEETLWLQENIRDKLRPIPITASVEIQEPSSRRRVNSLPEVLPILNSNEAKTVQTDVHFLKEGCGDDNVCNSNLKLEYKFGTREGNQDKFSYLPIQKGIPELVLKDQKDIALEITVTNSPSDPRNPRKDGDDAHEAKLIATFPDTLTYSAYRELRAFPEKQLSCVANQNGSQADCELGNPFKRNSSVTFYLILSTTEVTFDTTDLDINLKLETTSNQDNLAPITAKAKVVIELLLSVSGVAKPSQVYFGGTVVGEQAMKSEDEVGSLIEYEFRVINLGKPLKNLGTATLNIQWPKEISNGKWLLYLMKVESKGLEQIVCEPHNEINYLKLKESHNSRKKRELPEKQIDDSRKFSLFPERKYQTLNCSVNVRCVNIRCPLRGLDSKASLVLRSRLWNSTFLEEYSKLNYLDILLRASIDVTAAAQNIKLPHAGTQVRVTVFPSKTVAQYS
recombinant murine integrin α6β4, sequence (A2A863 29-712, chain 2 of 2): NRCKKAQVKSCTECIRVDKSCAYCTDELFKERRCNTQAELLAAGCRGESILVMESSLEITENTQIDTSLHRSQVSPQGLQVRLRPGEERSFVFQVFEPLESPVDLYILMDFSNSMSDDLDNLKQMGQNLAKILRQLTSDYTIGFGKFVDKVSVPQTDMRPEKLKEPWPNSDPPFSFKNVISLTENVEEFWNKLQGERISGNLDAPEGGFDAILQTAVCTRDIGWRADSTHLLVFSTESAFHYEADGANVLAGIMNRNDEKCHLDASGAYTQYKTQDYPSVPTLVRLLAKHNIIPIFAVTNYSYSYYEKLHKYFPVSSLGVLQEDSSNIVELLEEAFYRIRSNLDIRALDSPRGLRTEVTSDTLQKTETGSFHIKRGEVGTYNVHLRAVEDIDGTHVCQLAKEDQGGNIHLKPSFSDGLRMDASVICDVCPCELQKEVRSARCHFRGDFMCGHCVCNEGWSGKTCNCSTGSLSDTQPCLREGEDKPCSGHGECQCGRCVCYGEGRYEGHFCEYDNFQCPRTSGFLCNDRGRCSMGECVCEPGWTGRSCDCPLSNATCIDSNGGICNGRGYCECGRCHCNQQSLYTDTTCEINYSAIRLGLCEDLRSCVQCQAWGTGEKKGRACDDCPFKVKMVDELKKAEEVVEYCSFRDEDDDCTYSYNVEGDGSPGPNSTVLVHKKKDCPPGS
recombinant human integrin α6β4, sequence (P23229 24-1050, chain 1 of 2): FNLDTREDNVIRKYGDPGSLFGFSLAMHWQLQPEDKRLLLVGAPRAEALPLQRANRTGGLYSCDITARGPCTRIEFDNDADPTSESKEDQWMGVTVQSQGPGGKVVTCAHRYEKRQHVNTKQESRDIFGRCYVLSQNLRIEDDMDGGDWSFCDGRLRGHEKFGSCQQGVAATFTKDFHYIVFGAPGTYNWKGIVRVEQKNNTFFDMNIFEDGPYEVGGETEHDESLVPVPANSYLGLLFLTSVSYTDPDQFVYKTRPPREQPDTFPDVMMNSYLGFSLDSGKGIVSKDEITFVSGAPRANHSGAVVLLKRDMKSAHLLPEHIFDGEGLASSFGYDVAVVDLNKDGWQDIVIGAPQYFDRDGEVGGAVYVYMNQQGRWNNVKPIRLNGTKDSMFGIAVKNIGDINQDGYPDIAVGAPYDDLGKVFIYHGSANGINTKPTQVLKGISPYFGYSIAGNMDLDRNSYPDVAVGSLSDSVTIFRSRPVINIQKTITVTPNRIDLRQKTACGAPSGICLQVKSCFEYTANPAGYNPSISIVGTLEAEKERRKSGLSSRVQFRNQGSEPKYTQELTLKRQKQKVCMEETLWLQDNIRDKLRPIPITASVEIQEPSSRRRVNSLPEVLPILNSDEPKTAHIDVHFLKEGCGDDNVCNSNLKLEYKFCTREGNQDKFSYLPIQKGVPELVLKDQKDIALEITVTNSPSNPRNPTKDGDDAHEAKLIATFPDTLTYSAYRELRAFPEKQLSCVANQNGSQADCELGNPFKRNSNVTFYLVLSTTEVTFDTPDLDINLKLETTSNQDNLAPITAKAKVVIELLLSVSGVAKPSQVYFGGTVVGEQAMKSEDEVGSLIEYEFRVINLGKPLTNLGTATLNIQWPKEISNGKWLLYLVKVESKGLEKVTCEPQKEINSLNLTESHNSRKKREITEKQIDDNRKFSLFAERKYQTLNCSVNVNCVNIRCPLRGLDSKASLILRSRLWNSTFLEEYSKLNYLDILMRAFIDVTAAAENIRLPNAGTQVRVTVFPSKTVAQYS
recombinant human integrin α6β4, sequence (P16144 28-710, chain 2 of 2): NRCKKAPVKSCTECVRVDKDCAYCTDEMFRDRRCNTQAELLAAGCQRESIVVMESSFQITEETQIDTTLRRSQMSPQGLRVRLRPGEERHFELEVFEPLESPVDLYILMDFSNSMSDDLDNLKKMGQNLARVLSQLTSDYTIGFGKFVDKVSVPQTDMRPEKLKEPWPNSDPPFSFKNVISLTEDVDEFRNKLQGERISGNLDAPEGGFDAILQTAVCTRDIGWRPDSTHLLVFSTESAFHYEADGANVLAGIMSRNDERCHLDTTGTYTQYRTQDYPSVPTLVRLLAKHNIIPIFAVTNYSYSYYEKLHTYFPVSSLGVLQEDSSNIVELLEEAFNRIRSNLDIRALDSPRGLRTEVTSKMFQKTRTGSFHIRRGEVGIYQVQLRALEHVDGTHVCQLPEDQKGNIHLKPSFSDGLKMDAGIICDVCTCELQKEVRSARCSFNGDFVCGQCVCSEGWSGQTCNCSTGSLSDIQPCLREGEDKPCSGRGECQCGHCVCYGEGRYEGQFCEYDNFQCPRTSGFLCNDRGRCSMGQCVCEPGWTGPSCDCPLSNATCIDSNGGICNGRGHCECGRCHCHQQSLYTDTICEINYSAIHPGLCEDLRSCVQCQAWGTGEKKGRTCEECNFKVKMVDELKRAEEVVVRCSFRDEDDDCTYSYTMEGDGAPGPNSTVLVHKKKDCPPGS
recombinant human integrin α6β1, sequence (P23229 24-1050, chain 1 of 2): as the sequence (P23229 24-1050, chain 1 of 2) above
recombinant human integrin α6β1, sequence (P05556 21-728, chain 2 of 2): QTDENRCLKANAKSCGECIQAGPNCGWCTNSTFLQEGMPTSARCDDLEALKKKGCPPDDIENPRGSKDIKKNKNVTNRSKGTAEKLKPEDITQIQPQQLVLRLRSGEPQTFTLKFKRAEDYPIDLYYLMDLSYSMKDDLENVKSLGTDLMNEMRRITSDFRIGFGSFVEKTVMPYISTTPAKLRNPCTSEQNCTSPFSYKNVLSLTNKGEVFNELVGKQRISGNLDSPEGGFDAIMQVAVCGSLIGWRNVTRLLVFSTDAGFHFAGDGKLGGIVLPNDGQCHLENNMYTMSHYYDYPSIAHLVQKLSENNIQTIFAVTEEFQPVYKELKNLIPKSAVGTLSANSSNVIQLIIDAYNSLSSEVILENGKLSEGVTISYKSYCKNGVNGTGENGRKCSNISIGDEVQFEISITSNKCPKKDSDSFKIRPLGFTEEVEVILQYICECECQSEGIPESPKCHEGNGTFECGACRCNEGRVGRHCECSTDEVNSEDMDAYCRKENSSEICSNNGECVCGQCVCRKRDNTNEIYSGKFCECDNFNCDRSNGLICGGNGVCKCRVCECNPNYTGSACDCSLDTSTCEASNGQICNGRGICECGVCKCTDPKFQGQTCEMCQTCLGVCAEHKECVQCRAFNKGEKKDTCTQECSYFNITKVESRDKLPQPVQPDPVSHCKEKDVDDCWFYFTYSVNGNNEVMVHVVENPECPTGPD

B1: IDA (nc28) (ssDNA)
DNA: GCCTGTTGTGAGCCTCCTAACCGTGCGTATTCGTACTGGAACTGATATCGATGTCCCCATGCTTATTCTTGTCTCCC
binds: all assays above
